Earlier results in PMC6417862.

Biological target: muscle actin (Oryctolagus cuniculus) (UniProt P68135)

With cofilin (from UniProt Q03048) as the substance, how does the Kd read?
The Kd was under 300 nM.
